# Measurements published in the RNAGym collection of RNA variant scans (doi:10.1073/pnas.2313332121).
# Fewer inactive variants are shown than the library holds.
# B1: TPR 5TU (parent)
# chain: GGAUCUUCUCGAUCUAACAAAAAAGACAAAUCUGCCACAAAGCUUGAGAGCAUCUUCGGAUGCAGAGGCGGCAGCCUUCGGUGGCGCGAUAGCGCCAACGUUCUCAACUAUGACACGCAAAACGCGUGCUCCGUUGAAUGGAGUUUAUCAUG
# Variants of: B1
# Experiment: polymerase ribozyme fitness, log enrichment relative to wild type (log ratio); higher = more active; in vitro selection for triplet polymerase activity
# How it was run: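 After PCR construction and transcription, each subunit's mutant library from a heterodimeric triplet polymerase ribozyme was annealed with a biotinylated primer, the partner subunit and triplets. Incubation was frozen, at −7 °C, and extended constructs were gel-excised, bound to streptavidin beads and amplified by RT-PCR, in one selection round done in triplicate. Fitness is the logarithm of a genotype's enrichment divided by that of the wild type, from inverse-variance-weighted replicate averages of Illumina-sequenced inputs and outputs. The base of the logarithm is 2, and genotypes needed ≥10 input reads and ≥1 read per output.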
row,Variant,polymerase ribozyme fitness (log ratio)
1,G83A G92U C118G,-1.41
2,G83U A89G C95U C103G,≤ -4.2
3,G83C A147U,0.501
4,G84U C118U,-1.91
5,G83C G94U,-2.72
6,C85A C87A C108U A121U U135C G141A U145A,≤ -4.2
7,G83U C114G A115U A119U,≤ -4.2
8,U82G G143A,-0.245
9,G83U C129A,-4.02
10,G83C G136U,-2.46
11,G83A G124C,-2.64
12,G84A A97U U134A,-3.23
13,C85A C87U,≤ -4.2
14,G84A A89U G136U,-2.91
15,G84U G124C G140U U146C,≤ -4.2
16,G84U G133A,≤ -4.2
17,G83C A113C,-3.35
18,G83A C108U,-3.01
19,G83C G94A A98U C125U,-1.82
20,G84C U134G,≤ -4.2
21,C85A G136A,-1.05
22,G84A U148G,-3.25
23,G84A U102G A122U,-2.74
24,G83A G88A A91G G112U G140U G143C,≤ -4.2

row,Variant,polymerase ribozyme fitness (log ratio)
1,G83U A120C G141A,-0.169
2,C85A C116G,-0.2
3,G83C U148A,-3.1
4,G83C G128A,-3.88
5,G83A A107G G136A G140A,≤ -4.2
6,G84A A121C U127G,-2.56
7,G83C A98G,-3.71
8,G83U C95U C118U U144A,-3.4
9,G83U A97G A110U G117U,-3.7
10,G84C G92U A150U,-2.39
11,G83A C125A,-0.344
12,G84U U127G,-3.43
13,G83U C95G G124U U148C,≤ -4.2
14,G84A A91U U102G U144A,≤ -4.2
15,G83A U135G G141A,-3.78
16,G83A C108U C125G,-3.77
17,G83C A110G,-3.65
18,G83C C105G,-2.69
19,C85A A121U U127C,-1.47
20,C85A C96U A119C,-0.783
21,U82G G86U U102G U130G A147U,≤ -4.2
22,G83U A110U,-4.17
23,G83A G141C,-1.87
24,G83U C95U,-1.53

row,Variant,polymerase ribozyme fitness (log ratio)
1,G83U C95G,-1.54
2,G83C C132U A142U,≤ -4.2
3,G84U C95G A122U G152C,-3.55
4,G84A A97U U146C,-0.418
5,G84A G133C,-1.78
6,G84A G92C,-3.25
7,G83C A150G,-2.66
8,G84C G126C,-1.54
9,G83U A120U G141C,-0.804
10,C85A A142U,-1.59
11,G84A U90A A121U,≤ -4.2
12,G83U U101A A115U G117U,≤ -4.2
13,G84A C118U,-0.13
14,G83A A150U,0.356
15,G83A A150C,-3.77
16,G84A A115U G126A,-4.17
17,G83U G133C,-2.09
18,G83C C95U G126A,-2.05
19,G83C C129G A137C U145C,≤ -4.2
20,G84U A120U,-2.07
21,G83A U151G,-3.97
22,G83C U104G C116U,-1.3
23,G84A A119U,-0.787
24,C85A A97U G152A,≤ -4.2

row,Variant,polymerase ribozyme fitness (log ratio)
1,C85A G141C,-1.46
2,C85A G141A,-1.85
3,G84A A91U,≤ -4.2
4,C85A A119U A122U G141A,0.358
5,G84U C99U G141C,-2.46
6,G83A A106G A119C,-0.0979
7,G84A U127C,-1.91
8,G83C G88C,≤ -4.2
9,G84U G117U,-1.61
10,G83C C96A A150C,-3.75
11,C85A C103A A147G,≤ -4.2
12,C85A A119U,-2.98
13,G83U G140U G152U,-3.93
14,G83C C99A G133A,-4.12
15,G84A U139G,-0.68
16,U82G G84C,-4.06
17,C85A C129U,-0.397
18,G83U A122C G133C A147C,-2.76
19,G84U U148A,≤ -4.2
20,G84U C116A,-0.432
21,G83A G88U U111G U135A,≤ -4.2
22,G84A G88A U148G,≤ -4.2
23,G83C,-0.934
24,G83U,-0.478

row,Variant,polymerase ribozyme fitness (log ratio)
1,G83A,-0.336
2,G83U C87U A89C G141A A142G,≤ -4.2
3,G84U G86A U90A G100A,≤ -4.2
4,C85A G126U,-0.409
5,C85A G126C,-0.131
6,U82G A97G A98G C118A A119C G140C,≤ -4.2
7,C85A A115C,-1.64
8,G84U C96A,-2.84
9,G84U U145A,-1.53
10,G83A U135C,-2.09
11,C85A C87U U101G G136U,≤ -4.2
12,G84A G100A A106G A113U G117U C123U A142C,≤ -4.2
13,U82G A91U A110U G117A,≤ -4.2
14,G84A A113U G140A,≤ -4.2
15,G83A A115U,-1.25
16,G84A G86U C95A C99U U101A C123G,≤ -4.2
17,G84A G136U,-2.81
18,G83C U101C A119G A122U U135C U145A,-3.51
19,G84A C95A U104C,-0.367
20,G84U C95U G143C,-3.33
21,G83A C95A A113U,-3.12
22,U82G C87U,-0.516
23,G83U A89G C103A C108G U134C A142C,≤ -4.2
24,G84U U101G G143U,≤ -4.2

row,Variant,polymerase ribozyme fitness (log ratio)
1,G84C G94A,-4.07
2,G83A C132G G133C,-2.67
3,G84U U144G,-0.698
4,G84U A89U G126U,-1.58
5,G83A C105U A110G U134C,-3.98
6,G83U C96U,-0.875
7,G83U A98U C105U,-0.156
8,G84U,-1.91
9,G84A,-0.547
10,G84C,-1.76
11,G83C C96U C108G G143U,≤ -4.2
12,G84U G117U A121G,-1.75
13,G83A U90C,-3.51
14,G84A G140A,-3.27
15,G84A G140U,-2.64
16,G84U A106G U109A A121U C131A G141A U145A,≤ -4.2
17,C85A C95A,-0.893
18,G83A U104G A120G,-1.21
19,G84U C103U,-1.74
20,G83U C123A,-0.709
21,G83U A89C,-0.953
22,G84U U135A,-2.85
23,G83C U104G,-2.14
24,G84A A98G,-2.7

row,Variant,polymerase ribozyme fitness (log ratio)
1,G83C A107C,≤ -4.2
2,G84U C96U A122G C149G,≤ -4.2
3,G83C C132G,≤ -4.2
4,G83C A97G C108G,≤ -4.2
5,C85A C87U A98C,-3.62
6,G83U G126A U148A,≤ -4.2
7,C85A C118G,-0.907
8,C85A C118U,-0.342
9,C85A C103A C149U,-3.27
10,U82G C93U C131G G140U U146A,≤ -4.2
11,G84C A97G,-1.95
12,C85A A137C,-4.13
13,G83A A89G U109G U130G C132G,≤ -4.2
14,G84U U104G A115C,-3.36
15,G83A A147C,0.0173
16,G83A U134A,-2.04
17,G84A G128U,-3.84
18,C85A A120C A121U U130C U151G,≤ -4.2
19,C85A C125G,-1.13
20,C85A G117C C118A A147U,-0.0649
21,G83C G92U A137G,-3.45
22,G83U A121U,-0.341
23,G83C G117A,0.556
